Measured values published in patent publication US20250000988A1, “EPHA2 BICYCLIC PEPTIDE LIGAND AND CONJUGATE THEREOF” (priority 2021, published 2025).
Like-named read-outs stand apart in the source and are kept apart here. Numbered stars: 1 amine (or outer) side, 2 acyl side, 3 side chain; on linkers, the order of the positions; unused ones are H or OH. Bridge positions count the residues as written; N and C are the ends. Square brackets hold non-standard residues; d marks the D form. Peptide text beside a SMILES is read from it. I, II: the chains in the order shown. * marks the point of attachment. X3 = O=C(CCCC(=O)NCCC(=O)[*:1])NCCOCCOCCN(CC(=O)[*:2])CC(=O)[*:3]; TATA = O=C(CC[*:1])N1CN(C(=O)CC[*:2])CN(C(=O)CC[*:3])C1; Dolaproine = CO[C@@H]([C@@H]1CCCN1)[C@@H](C)C(=O)O; Dil = CC[C@H](C)[C@H](NC)[C@@H](CC(=O)O)OC; X2 = O=C(CCCC(=O)[*:2])NCCC(=O)[*:1]; PABC = O=C(OCc1ccc(N[*:1])cc1)[*:2]; X1 = C[C@@H](N*)[C@@H](O)c1ccccc1; Hyp = O=C(O)[C@@H]1C[C@@H](O)CN1; hArg = N=C(N)NCCCC[C@H](N)C(=O)O; Cit = NC(=O)NCCC[C@H](N)C(=O)O; NMeV = CN[C@H](C(=O)O)C(C)C; hCys = N[C@@H](CCS)C(=O)O; Sar = CNCC(=O)O

What was measured:
PC3 cells = test: PC3 cell proliferation inhibition assay; format: cell-based, human
Protocol: PC3 cell culture conditions: RPMI-1640+10% FBS+1% penicillin-streptomycin solution. The cells were cultured in a 37° C., 5% CO2 incubator. On the first day, the PC3 cells in the exponential growth phase were collected and plated in a 96-well cell culture plate at a density of 500 cells/well (90 μL/well). The cells were cultured overnight in a 37° C., 5% CO2 incubator. The next day, 10 μL of the compound at different concentrations was added to each well so that the final concentration of DMSO in each well was 0.1%. The mixture was cultured in a 37° C., 5% CO2 incubator for 3 days. After the completion of culture, 50 μL of detection solution (Cell Viability Assay, Promega, G7573) was added to each well. The mixture was mixed uniformly for 2 minutes and incubated at room temperature for 10 minutes. The chemiluminescence reading was detected by a microplate reader. The results were processed according to formula (1), the proliferation inhibition rate of the compound at different concentrations was calculated, and the IC50 value of the compound with an inhibition rate of 50% was calculated using origin9.2 software, wherein RLUcompound was the readout of the treated group, and RLUcontrol was the average value of the solvent control group.

MOLP8 cells = test: MOLP8 cell proliferation inhibition assay; format: cell-based, human; conditions: MOLP8 cells (EphA2 negative cell), incubated 5 days
Protocol: Human multiple myeloma MOLP8 cells purchased from DSMZ were placed in complete RPMI-1640 medium (supplemented with 20% fetal bovine serum) and cultured at 37° C. and 5% CO2. The cells in the exponential growth phase were collected, and the cell suspension was adjusted to 8000 cells/135 μL with the culture medium. 135 μl of the cell suspension was added to each well of a 96-well cell culture plate and incubated overnight. The next day, compounds at different concentrations were added, and the plate was placed in the incubator and incubated for 5 days. After the completion of culture, according to operation instructions for a CellTiter-Glo kit (Promega, Cat #G7573), 75 μL of CTG solution, which was already pre-melted and equilibrated to room temperature, was added to each well, and the mixture was uniformly mixed for 2 minutes using a microplate shaker. The plate was placed at room temperature for 10 minutes, and then […] signal values were measured using an Envision 2104 plate reader (PerkinElmer). The cell proliferation inhibition rate was calculated according to the formula [(1−(RLUcompound−RLUblank)/(RLUcontrol−RLUblank))×100%]. The IC50 value was obtained by four-parameter nonlinear fitting using GraphPad Prism software.

[1] = Pharmacokinetic test in rats; set-up: species or system SD rats; conditions: in vivo, iv, rat plasma, i.v. 1 mg/kg, analyte PDC
Protocol: 3.1 Experimental animals: male SD rats, about 220 g, 6-8 weeks old, 3 rats/compound. Purchased from Chengdu Ddossy Experimental Animals Co., Ltd.
3.2 Experimental design: on the day of the test, 3 SD rats were randomly grouped according to their body weights. The animals were fasted with water available for 12 to 14 h one day before the administration, and were fed 4 h after the administration.
Before and after the administration, 0.15 m1 of blood was taken from the orbit of the animals under isoflurane anesthesia and placed in an EDTAK2 centrifuge tube. The blood was centrifuged at 5000 rpm and 4° C. for 10 min to collect plasma. The blood collection time points for the intravenous administration group and intragastric administration group were: 0, 5 min, 15 min, 30 min, 1 h, 2 h, 4 h, 6 h, 8 h and 24 h. Before analysis and detection, all samples were stored at −80° C., and a quantitative analysis of samples was performed using LC-MS/MS.

[2] = Pharmacokinetic test in monkeys; conditions: cynomolgus monkey, in vivo, iv, monkey plasma; for AUC(0-t) / Cmax / half-life: 1 mg/kg
Protocol: 4.1 Experimental animals: male cynomolgus monkeys, 3-5 kg, 3-6 years old, 3 monkeys/compound. Purchased from Suzhou Xishan Biotechnology Inc.
4.2 Experimental method: on the day of the test, 3 monkeys were randomly grouped according to their body weights. The animals were fasted with water available for 14 to 18 h one day before the administration, and were fed 4 h after the administration.
Solvent for intravenous administration: 5% DMA+95% (20% SBE-CD).
Before and after the administration, 1.0 mL of blood samples were drawn from the limb veins and placed in an EDTAK2 centrifuge tube. Centrifugation was carried out at 5000 rpm at 4° C. for 10 min, and the plasma was collected. The blood collection time points for the intravenous administration group were: 0, 2 min, 5 min, 15 min, 30 min, 1 h, 2 h, 4 h, 6 h, 8 h, and 24 h. Before analysis and detection, all samples were stored at −80° C., and a quantitative analysis of samples was performed using LC-MS/MS.

[3] = tested on: PC3 cells subcutaneous transplanted tumor; test: Mouse PC3 cells subcutaneous in vivo transplanted tumor model; set-up: species or system CB-17 SCID mice; conditions: 0.5 mg/kg intravenously, once a week, 35 days
Protocol: Human prostate cancer PC3 cells were placed in an RPMI-1640 medium (supplemented with 10% fetal bovine serum and 1% penicillin-streptomycin solution) and cultured at 37° C. Conventional digestion treatment with trypsin was carried out twice a week for passage. When the cell saturation was 80%-90%, and the number reached the requirement, the cells were collected, counted, and inoculated. Male CB-17 SCID mice (from Beijing Vital River Laboratory Animal Technology Co., Ltd.) were subcutaneously inoculated with 0.1 mL (2×10^6) of PC3 cells (plus matrigel, with the volume ratio of 1:1) on the right back. When the average tumor volume reached about 80-120 mm^3, grouping and administration were performed (marked as Day 0). For the solvent group, 50 mM of acetic acid and 10% sucrose solution (pH=5) were administered; and for the administration group, 0.5 mg/kg of compound 2, compound 4 or compound 13 was intravenously administered. The administration frequency was once a week and the administration cycle was 35 days (Day 0-Day 34). After grouping, the tumor diameter was measured twice a week with a vernier caliper. The formula for calculating the tumor volume was: V=0.5×a×b^2, where a and b represented the long and short diameters of the tumor, respectively. The tumor inhibitory effect of the compound was evaluated by TGI (%)= [1−(average tumor volume at the end of administration in the treatment group-average tumor volume at the beginning of administration in the treatment group)/(average tumor volume at the end of treatment in the solvent control group-average tumor volume at the beginning of treatment in the solvent control group)]×100%. The tumor growth curve and the animal body weight change curve were as shown in FIG. 1 and FIG. 2, respectively.

[4] = i.v. 1 mg/kg of compound 4, analyte MMAE

**Q.** Which results are given for “I: [Sar][Sar][Sar][Sar][Sar][Sar][Sar][Sar][Sar][Sar]A[hArg]D[hCys][Hyp]LVNPLCLHP[dD]W[hArg]C-NH2 / II: V[Cit][PABC][NMeV]V[Dil][Dolaproine]-X1 / III: V[Cit][PABC][NMeV]V[Dil][Dolaproine]-X1 (linker I:14-I:21-I:28 via TATA; linker I:N-II:N-III:N via X3) [Compound 17]”?
**A.** Max inh. % 10 μM (PC3 cells; 10 μM): 69.4%; IC50 (PC3 cells; cultured 3 days with compound, read-out: IC50): ≤ 10 nM; IC50 (PC3 cells; read-out: IC50 value): 1 nM

**Q.** Which results are given for `CC[C@H](C)[C@@H]([C@@H](CC(=O)N1CCC[C@H]1[C@H](OC)[C@@H](C)C(=O)N[C@H](C)[C@@H](O)c1ccccc1)OC)N(C)C(=O)[C@@H](NC(=O)[C@H](C(C)C)N(C)C(=O)OCc1ccc(NC(=O)[C@H](CCCNC(N)=O)NC(=O)[C@@H](NC(=O)CCCC(=O)NCCC(=O)N(C)CC(=O)N(C)CC(=O)N(C)CC(=O)N(C)CC(=O)N(C)CC(=O)N(C)CC(=O)N(C)CC(=O)N(C)CC(=O)N(C)CC(=O)N(C)CC(=O)N[C@@H](C)C(=O)N[C@@H](CCCCNC(=N)N)C(=O)N[C@@H](CC(=O)O)C(=O)N[C@H]2CCSCCC(=O)N3CN4CN(C3)C(=O)CCSC[C@H](NC(=O)[C@H](CC(C)C)NC(=O)[C@@H]3CCCN3C(=O)[C@H](CC(N)=O)NC(=O)[C@H](C(C)C)NC(=O)[C@H](CC(C)C)NC(=O)[C@@H]3C[C@@H](O)CN3C2=O)C(=O)N[C@@H](CC(C)C)C(=O)N[C@@H](Cc2c[nH]cn2)C(=O)N2CCC[C@H]2C(=O)N[C@H](CC(=O)O)C(=O)N[C@@H](Cc2c[nH]c3ccccc23)C(=O)N[C@@H](CCCCNC(=N)N)C(=O)N[C@H](C(N)=O)CSCCC4=O)C(C)C)cc1)C(C)C` [Compound 4] (I: [Sar][Sar][Sar][Sar][Sar][Sar][Sar][Sar][Sar][Sar]A[hArg]D[hCys][Hyp]LVNPLCLHP[dD]W[hArg]C-NH2 / II: V[Cit][PABC][NMeV]V[Dil][Dolaproine]-X1; linker I:14-I:21-I:28 via TATA; linker I:N-II:N via X2)?
**A.** IC50 (PC3 cells; read-out: IC50 value): 2.9 nM; IC50 (MOLP8 cells): 144 nM; AUC(0-t) [1]: 1470 ng·h/mL; Cmax [1]: 6530 ng/mL; clearance [1]: 11 mL/min/kg; half-life [1]: 16.3 min; Vd ([1]; read-out: Vdss): 0.233 L/kg; AUC(0-t) [2, 4]: 20.8 ng·h/mL; Cmax [2, 4]: 3.71 ng/mL; half-life [2, 4]: 1460 min; AUC(0-t) ([2]; i.v. 1 mg/kg, analyte PDC): 3030 ng·h/mL; Cmax ([2]; i.v. 1 mg/kg, analyte PDC): 7630 ng/mL; half-life ([2]; i.v. 1 mg/kg, analyte PDC): 38.6 min; clearance ([2]; i.v. 1 mg/kg, analyte PDC): 5.57 mL/min/kg; Vd ([2]; i.v. 1 mg/kg, analyte PDC, read-out: Vdss): 0.179 L/kg; tolerability [3]: well tolerated

**Q.** With `CC[C@H](C)[C@@H]([C@@H](CC(=O)N1CCC[C@H]1[C@H](OC)[C@@H](C)C(=O)N[C@H](C)[C@@H](O)c1ccccc1)OC)N(C)C(=O)[C@@H](NC(=O)[C@H](C(C)C)N(C)C(=O)OCc1ccc(NC(=O)[C@H](CCCNC(N)=O)NC(=O)[C@@H](NC(=O)CCCC(=O)NCCC(=O)N(C)CC(=O)N(C)CC(=O)N(C)CC(=O)N(C)CC(=O)N(C)CC(=O)N(C)CC(=O)N(C)CC(=O)N(C)CC(=O)N(C)CC(=O)N(C)CC(=O)N[C@@H](C)C(=O)N[C@@H](CCCCNC(=N)N)C(=O)N[C@@H](CC(=O)O)C(=O)N[C@H]2CSCCC(=O)N3CN4CN(C3)C(=O)CCSC[C@H](NC(=O)[C@H](CC(C)C)NC(=O)[C@@H]3CCCN3C(=O)[C@H](CC(N)=O)NC(=O)[C@H](C(C)C)NC(=O)[C@H](CC(C)C)NC(=O)[C@@H]3C[C@@H](O)CN3C2=O)C(=O)N[C@@H](CC(C)C)C(=O)N[C@@H](Cc2c[nH]cn2)C(=O)N2CCC[C@H]2C(=O)N[C@H](CC(=O)O)C(=O)N[C@@H](Cc2c[nH]c3ccccc23)C(=O)N[C@@H](CCCCNC(=N)N)C(=O)N[C@H](C(N)=O)CCSCCC4=O)C(C)C)cc1)C(C)C` [Compound 2] (I: [Sar][Sar][Sar][Sar][Sar][Sar][Sar][Sar][Sar][Sar]A[hArg]DC[Hyp]LVNPLCLHP[dD]W[hArg][hCys]-NH2 / II: V[Cit][PABC][NMeV]V[Dil][Dolaproine]-X1; linker I:14-I:21-I:28 via TATA; linker I:N-II:N via X2) as the compound, how does the IC50 (PC3 cells; read-out: IC50 value) read?
**A.** 3.1 nM

**Q.** What about the tolerability [3] of the same compound?
**A.** well tolerated

**Q.** For `CC[C@H](C)[C@@H]([C@@H](CC(=O)N1CCC[C@H]1[C@H](OC)[C@@H](C)C(=O)N[C@H](C)[C@@H](O)c1ccccc1)OC)N(C)C(=O)[C@@H](NC(=O)[C@H](C(C)C)N(C)C(=O)OCc1ccc(NC(=O)[C@H](CCCNC(N)=O)NC(=O)[C@@H](NC(=O)CCCC(=O)NCCC(=O)N(C)CC(=O)N(C)CC(=O)N(C)CC(=O)N(C)CC(=O)N(C)CC(=O)N(C)CC(=O)N(C)CC(=O)N(C)CC(=O)N(C)CC(=O)N(C)CC(=O)N[C@@H](C)C(=O)N[C@@H](CCCCNC(=N)N)C(=O)N[C@@H](CC(=O)O)C(=O)N[C@H]2CCSCCC(=O)N3CN4CN(C3)C(=O)CCSC[C@H](NC(=O)[C@H](CC(C)C)NC(=O)[C@@H]3CCCN3C(=O)[C@H](CC(N)=O)NC(=O)[C@H](C(C)C)NC(=O)[C@H](CC(C)C)NC(=O)[C@@H]3C[C@@H](O)CN3C2=O)C(=O)N[C@@H](CC(C)C)C(=O)N[C@@H](Cc2c[nH]cn2)C(=O)N2CCC[C@H]2C(=O)N[C@H](CC(=O)O)C(=O)N[C@@H](Cc2c[nH]c3ccccc23)C(=O)N[C@@H](CCCCNC(=N)N)C(=O)N[C@H](C(N)=O)CCSCCC4=O)C(C)C)cc1)C(C)C` [Compound 13] (I: [Sar][Sar][Sar][Sar][Sar][Sar][Sar][Sar][Sar][Sar]A[hArg]D[hCys][Hyp]LVNPLCLHP[dD]W[hArg][hCys]-NH2 / II: V[Cit][PABC][NMeV]V[Dil][Dolaproine]-X1; linker I:14-I:21-I:28 via TATA; linker I:N-II:N via X2), which tolerability [3] is on record?
**A.** well tolerated
